In article PMC6956818, “Activation of JNK and p38 MAPK Mediated by ZDHHC17 Drives Glioblastoma Multiforme Development and Malignant Progression” (Theranostics, 2020):

B1: Myc-tagged ZDHHC17 ANK (1-7) [human] / Flag-MAP2K4 [human] (parent complex)
chain 1: THIDDYSTWDIVKATQYGIYERCRELVEAGYDVRQPDKENVTLLHWAAINNRIDLVKYYISKGAIVDQLGGDLNSTPLHWATRQGHLSMVVQLMKYGADPSLIDGEGCSCIHLAAQFGHTSIVAYLIAKGQDVDMMDQNGMTPLMWAAYRTHSVDPTRLLLTFNVSVNLGDKYHKNTALHWAVLAGNTTVISLLLEAGANVDAQNIKGESALDLAKQRKNVWMINHLQEARQAKGYDN
chain 2: MAAPSPSGGGGSGGGSGSGTPGPVGSPAPGHPAVSSMQGKRKALKLNFANPPFKSTARFTLNPNPTGVQNPHIERLRTHSIESSGKLKISPEQHWDFTAEDLKDLGEIGRGAYGSVNKMVHKPSGQIMAVKRIRSTVDEKEQKQLLMDLDVVMRSSDCPYIVQFYGALFREGDCWICMELMSTSFDKFYKYVYSVLDDVIPEEILGKITLATVKALNHLKENLKIIHRDIKPSNILLDRSGNIKLCDFGISGQLVDSIAKTRDAGCRPYMAPERIDPSASRQGYDVRSDVWSLGITLYELATGRFPYPKWNSVFDQLTQVVKGDPPQLSNSEEREFSPSFINFVNLCLTKDESKRPKYKELLKHPFILMYEERAVEVACYVCKILDQMPATPSSPMYVD

Variants of: B1
Experiment: co-immunoprecipitation, quantified immunoblot; HEK293 cell lysates; parent: 1; read off a plot

Row | Variant | ratio to parent
1 | chain 1 THIGDYSTWDIVKATQYGIYERCRELVEAGYDVRQPDKENVTLLHWAAINNRIDLVKYYISKGAIVDQLGGDLNSTPLHWATRQGHLSMVVQLMKYGADPSLIDGEGCSCIHLAAQFGHTSIVAYLIAKGQDVDMMDQNGMTPLMWAAYRTHSVDPTRLLLTFNVSVNLGDKYHKNTALHWAVLAGNTTVISLLLEAGANVDAQNIKGESALDLAKQRKNVWMINHLQEARQAKGYDN [chain 1 D4G] | ~0.43
2 | chain 1 THIDGYSTWDIVKATQYGIYERCRELVEAGYDVRQPDKENVTLLHWAAINNRIDLVKYYISKGAIVDQLGGDLNSTPLHWATRQGHLSMVVQLMKYGADPSLIDGEGCSCIHLAAQFGHTSIVAYLIAKGQDVDMMDQNGMTPLMWAAYRTHSVDPTRLLLTFNVSVNLGDKYHKNTALHWAVLAGNTTVISLLLEAGANVDAQNIKGESALDLAKQRKNVWMINHLQEARQAKGYDN [chain 1 D5G] | ~0.75
3 | chain 1 THIDDYSTWDIVKATQYGIYERCRELVEAGYDVRQPDKENVTLLHWAAINNGIDLVKYYISKGAIVDQLGGDLNSTPLHWATRQGHLSMVVQLMKYGADPSLIDGEGCSCIHLAAQFGHTSIVAYLIAKGQDVDMMDQNGMTPLMWAAYRTHSVDPTRLLLTFNVSVNLGDKYHKNTALHWAVLAGNTTVISLLLEAGANVDAQNIKGESALDLAKQRKNVWMINHLQEARQAKGYDN [chain 1 R52G] | ~0.35
4 | chain 1 THIDDYSTWDIVKATQYGIYERCRELVEAGYDVRQPDKENVTLLHWAAINNRIDLVKYYISKGAIVDQLGGDLNSTPLHWATRGGHLSMVVQLMKYGADPSLIDGEGCSCIHLAAQFGHTSIVAYLIAKGQDVDMMDQNGMTPLMWAAYRTHSVDPTRLLLTFNVSVNLGDKYHKNTALHWAVLAGNTTVISLLLEAGANVDAQNIKGESALDLAKQRKNVWMINHLQEARQAKGYDN [chain 1 Q84G] | ~0.85

Now from value to variant:

Row | ratio to parent | Variant
5 | ~0.75 | chain 1 THIDDYSTWDIVKATQYGIYERCRELVEAGYDVRQPDKENVTLLHWAAINNRIDLVKYYISKGAIVDQLGGDLNSTPLHWATGQGHLSMVVQLMKYGADPSLIDGEGCSCIHLAAQFGHTSIVAYLIAKGQDVDMMDQNGMTPLMWAAYGTHSVDPTRLLLTFNVSVNLGDKYHKNTALHWAVLAGNTTVISLLLEAGANVDAQNIKGESALDLAKQRKNVWMINHLQEARQAKGYDN [chain 1 R83G, chain 1 R150G]
6 | ~0.35 | chain 1 THIDDGSTWDIVKATQYGIYERCRELVEAGYDVRQPDKENVTLLHWAAINNRIDLVKYYISKGAIVDQLGGDLNSTPLHWATRQGHLSMVVQLMKYGADPSLIDGEGCSCIHLAAQFGHTSIVAYLIAKGQDVDMMDQNGMTPLMWAAYRTHSVDPTRLLLTFNVSVNLGDKYHKNTALHWAVLAGNTTVISLLLEAGANVDAQNIKGESALDLAKQRKNVWMINHLQEARQAKGYDN [chain 1 Y6G]
7 | ~0.33 | chain 1 THIDDYSTWDIVKATQGGIYERCRELVEAGYDVRQPDKENVTLLHWAAINNRIDLVKYYISKGAIVDQLGGDLNSTPLHWATRQGHLSMVVQLMKYGADPSLIDGEGCSCIHLAAQFGHTSIVAYLIAKGQDVDMMDQNGMTPLMWAAYRTHSVDPTRLLLTFNVSVNLGDKYHKNTALHWAVLAGNTTVISLLLEAGANVDAQNIKGESALDLAKQRKNVWMINHLQEARQAKGYDN [chain 1 Y17G]
8 | ~0.42 | chain 1 THIDDYSTWDIVKATQYGIYERCRELVEAGYDVRQPDKENVTLLHWAAINNRIDLVKYYISKGAIVDQLGGDLNSTPLHGATRQGHLSMVVQLMKYGADPSLIDGEGCSCIHLAAQGGHTSIVAYLIAKGQDVDMMDQNGMTPLMWAAYRTHSVDPTRLLLTFNVSVNLGDKYHKNTALHWAVLAGNTTVISLLLEAGANVDAQNIKGESALDLAKQRKNVWMINHLQEARQAKGYDN [chain 1 W80G, chain 1 F117G]
